Values quoted from earlier work in paper PMC4865444.

Tests used:
[1] = biological target: Nef SF2 (Human immunodeficiency virus 1) (UniProt P03407)
[2] = biological target: Nef NL4-3 (Human immunodeficiency virus 1) (UniProt P04324)

UniProt P03407, sequence (P03407 2-210): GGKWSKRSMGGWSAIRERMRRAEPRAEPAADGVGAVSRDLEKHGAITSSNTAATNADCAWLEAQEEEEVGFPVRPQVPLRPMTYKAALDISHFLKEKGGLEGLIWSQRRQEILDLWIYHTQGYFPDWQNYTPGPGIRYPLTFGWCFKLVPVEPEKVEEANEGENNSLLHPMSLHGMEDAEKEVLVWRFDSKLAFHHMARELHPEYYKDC

In the case of Hck SH3 (from UniProt P08631), the Kd [1] is listed as 640 nM and the Kd [2] is listed as 1400 nM.
